{"source": "patent US20050089521A1", "key": {"[1]": {"target": "mouse trkC (on E11 mouse trigeminal neurons) (mouse) (UniProt Q6VNS1)", "sequence (Q6VNS1 32-825)": "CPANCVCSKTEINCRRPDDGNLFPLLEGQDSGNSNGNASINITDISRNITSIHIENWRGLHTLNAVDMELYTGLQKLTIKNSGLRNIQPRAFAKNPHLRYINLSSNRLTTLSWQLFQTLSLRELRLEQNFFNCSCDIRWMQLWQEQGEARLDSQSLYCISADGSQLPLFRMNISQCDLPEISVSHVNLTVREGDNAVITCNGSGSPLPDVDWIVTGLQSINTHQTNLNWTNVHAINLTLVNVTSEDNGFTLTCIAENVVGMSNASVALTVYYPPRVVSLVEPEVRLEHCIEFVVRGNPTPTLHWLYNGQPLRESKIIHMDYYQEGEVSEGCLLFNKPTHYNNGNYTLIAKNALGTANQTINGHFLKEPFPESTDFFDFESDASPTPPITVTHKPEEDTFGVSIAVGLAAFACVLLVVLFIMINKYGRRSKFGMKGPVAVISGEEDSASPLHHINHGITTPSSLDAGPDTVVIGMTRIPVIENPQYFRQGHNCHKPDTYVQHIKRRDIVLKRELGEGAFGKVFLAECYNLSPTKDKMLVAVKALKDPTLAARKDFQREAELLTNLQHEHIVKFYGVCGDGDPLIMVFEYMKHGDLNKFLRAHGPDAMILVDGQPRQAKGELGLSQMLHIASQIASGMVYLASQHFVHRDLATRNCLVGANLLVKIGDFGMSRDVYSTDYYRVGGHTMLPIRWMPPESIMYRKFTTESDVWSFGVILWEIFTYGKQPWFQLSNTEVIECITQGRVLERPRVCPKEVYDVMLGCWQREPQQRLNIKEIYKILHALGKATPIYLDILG", "assay": "cell-based or functional assay"}, "[2]": {"target": "rat trkC (on E12 rat trigeminal neurons) (rat) (UniProt Q03351)", "sequence (Q03351 32-864)": "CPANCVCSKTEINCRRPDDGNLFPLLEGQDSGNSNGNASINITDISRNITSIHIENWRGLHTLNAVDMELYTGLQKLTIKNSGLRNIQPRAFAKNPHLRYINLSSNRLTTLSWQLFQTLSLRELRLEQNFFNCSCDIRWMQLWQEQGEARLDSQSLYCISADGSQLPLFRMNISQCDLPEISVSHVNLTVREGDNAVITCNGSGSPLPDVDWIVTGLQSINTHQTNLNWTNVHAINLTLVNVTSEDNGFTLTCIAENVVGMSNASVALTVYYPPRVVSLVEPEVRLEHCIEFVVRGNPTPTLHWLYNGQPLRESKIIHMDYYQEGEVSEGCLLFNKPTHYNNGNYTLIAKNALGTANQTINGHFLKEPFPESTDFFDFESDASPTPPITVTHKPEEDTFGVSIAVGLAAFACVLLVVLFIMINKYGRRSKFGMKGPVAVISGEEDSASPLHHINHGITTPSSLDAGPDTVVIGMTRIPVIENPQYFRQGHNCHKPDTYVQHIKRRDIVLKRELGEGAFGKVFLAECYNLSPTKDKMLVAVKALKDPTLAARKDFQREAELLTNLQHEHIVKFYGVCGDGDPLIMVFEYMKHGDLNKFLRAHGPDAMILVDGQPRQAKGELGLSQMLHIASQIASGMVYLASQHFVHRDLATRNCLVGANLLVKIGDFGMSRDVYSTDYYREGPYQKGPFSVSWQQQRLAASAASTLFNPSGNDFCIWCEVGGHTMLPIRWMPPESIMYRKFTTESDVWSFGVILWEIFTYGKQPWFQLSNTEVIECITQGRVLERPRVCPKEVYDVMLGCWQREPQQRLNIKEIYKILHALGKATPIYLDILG", "assay": "cell-based or functional assay"}}, "data": [{"substance": "neurotrophin-3 (NT-3) (ligand)", "values": [{"measurement": "survival of trigeminal neurons after 24 hours in culture", "setting": "[1]", "result": 0.08, "unit": "ng/mL"}, {"measurement": "survival of trigeminal neurons after 24 hours in culture", "setting": "[2]", "result": 0.08, "unit": "ng/mL"}]}]}
